Results from PMC6872904.

Molecular target: Bmp8
Assay: SEC

stoichiometry N: 2
Substance: Bmp8 (enzyme)
